Assays:
T47D breast cancer cells = experiment: T47D xenograft engraftment, cells mixed with Matrigel plus NME7, with or without daily NME7 injections; type: in vivo, nu/nu mice
Experimental: Example 1: Immune-compromised nu/nu mice between 40-60 days old were implanted with 90-day estrogen release pellets to foster the engraftment and growth of breast tumor cells. Human T47D breast cancer cells were mixed 1:2 with Matrigel then injected into the flank of the mouse (4 million each mouse), six (6) mice per group. In a second group, cancer cells were mixed with Matrigel at the same 1:2 ratio (100 uL cells: 200 ul Matrigel) except, human recombinant NME7-AB was added into the cell/Matrigel mix to a final NME7 concentration of 16 nM (6 mice). Of those six (6) mice, three (3) were randomly chosen to receive NME7 injections daily (100 uL at 32 nM), after day 14. […] After Day 14, the mice whose tumor cells were mixed with NME7 were also injected once daily with human recombinant NME7. […] After Day 14, half of the mice were also injected once daily with human recombinant NME7. […] Dashed lines indicate mice that were also injected with NME7 after Day 14.

[1] = test system: DU145 MUC1-positive prostate cancer cells; experiment: RT-PCR of cancer stem cell markers in DU145 cells cultured with agent; type: cell-based, human; details: after 9-10 passages; FIG. 11b
Experimental: Example 3: Agents that are able to maintain stem cells in the naïve state transform cancer cells into cancer stem cells wherein only a small number of cells are required for engraftment. Cancer cells were cultured according to standard practice. In the controls, the cancer cells were cultured in their normal media: RPMI for T47D breast cancer cells, DU145 and PC3 prostate cancer cells. However, the test agents, recombinant proteins human NME1 dimers, bacterial HSP593 NME1 dimers, human NME7-AB and 2i, were added to a serum-free minimal media to eliminate potential interference from the many growth factors and cytokines in serum.
To this serum-free minimal media, rhNME1 (aka NM23) was added to a final concentration of 8 nM, or bacterial HSP593 recombinant NME1 was added to a final concentration of 8 nM, or rhNME7-AB was added to a final concentration of 4 nM, or 2i inhibitors, PD0325901 and CHIR99021, which inhibit the MAP kinase pathway and GSK3, respectively, were added to a final concentration of 3 μM and 1 μM.
Example 3b: Prostate cancer cells were also cultured as described above with either human NME1 dimers, bacterial NME1 dimers, NME7-AB, or 2i inhibitors. […] Thus, the RT-PCR measurements of the cancer stem cell markers are lower than that of the T47D cells, which could be explained by it being the measure of transformed cells and non-transformed cells. In the case of breast cancer cells, we were able to isolate the fully transformed cancer stem cells by collecting the floating cells, but were not able to do so here. DU145 MUC1-positive prostate cancer cells were cultured in RPMI media as a control and in minimal media to which was added recombinant human NME1/NM23 dimers, bacterial HSP593 dimers, or human NME7-AB. […] There was about a 2-8-fold increase in OCT4, MUC1 and CDH1/E-cadherin. However, after serial passaging under these same culture conditions, the increases in expression of cancer stem cell markers became more pronounced. We reasoned that serial passaging allowed more time for cells to transform since we could not rapidly collect floating cells.

T47D cancer stem cells = experiment: Tumor initiation and metastasis from low numbers of NME7-AB-induced T47D cancer stem cells, with or without daily NME7-AB injections; type: in vivo, nu/nu female mice
Experimental: T47D breast cancer cells were cultured as described in Example 3a above. After 7-10 days culture in minimal media to which was added rhNME7-AB to a final concentration of 4 nM, floating cells were collected. […] The floating cells were counted and re-suspended in PBS. The NME7-induced cancer stem cells were mixed 1:2 with reduced growth factor Matrigel; that is 2 parts Matrigel to 1 part cells. A range of ratios of cancer cells to NME7 or the injection schedule of NME7 is expected to vary from one mouse strain to another and from one tumor type to another.
The cancer stem cells were implanted in the flank of female nu/nu mice which had previously been implanted with a 90-day release estrogen pellet in the shoulder area. Four (4) groups of six (6) mice each were implanted with either 50, 100, 1,000 or 10,000 T47D cancer stem cells. In each case the total volume injected into each mouse was 100 uL. Half of the mice in each group were injected daily with 200 uL of recombinant human NME7-AB in the flank near but not at the cancer stem cell implantation site.
Animals were monitored for food intake and body weight, which were normal and stable. Two (2) independent and blinded tumor measurements were taken once a week and recorded.

[2] = test system: Human HES-3 embryonic stem cells; experiment: Human embryonic stem cell culture with NME protein as only growth factor; type: cell-based; details: serum-free minimal base media, agent as the only growth factor or cytokine
Description: Factors that are able to maintain stem cells in the naive state are also able to transform cells to a cancer-like or stem-like state and are also able to transform cancer cells to a cancer stem cell state or a more metastatic state. Herein, we have shown several examples of bacterial NME1 being able to function like human NME1 dimers, which are also able to function like NME7 or NME7-AB. However, the primary example that these factors function in a very similar way is their ability to promote the growth of stem cells, inhibit differentiation and maintain them in the naive state. […] Human HES-3 embryonic stem cells were cultured in a serum-free minimal base media with either HSP 593, human NME1 or NME7-dimers or human NME7-AB as the only growth factor or cytokine. […] Several examples have been presented here that indicate that contacting cells with an agent or agents that are able to revert stem cells from the primed state to the less mature naive state are also able to revert a wide variety of cell types to a less mature state: somatic cells to stem or progenitor cells or cancer cells to more metastatic state also called cancer stem cell state. Therefore, the invention is not meant to be limited to a specific cell type or a specific cancer cell type.

B1: NME7-AB: recombinant human NME7 variant (A and B domains, SEQ ID NO:39) secreted as a monomer; 'NME7' in the experiments means this protein (protein)
chain: MEKTLALIKPDAISKAGEIIEIINKAGFTITKLKMMMLSRKEALDFHVDHQSRPFFNELIQFITTGPIIAMEILRDDAICEWKRLLGPANSGVARTDASESIRALFGTDGIRNAAHGPDSFASAAREMELFFPSSGGCGPANTAKFTNCTCCIVKPHAVSEGLLGKILMAIRDAGFEISAMQMFNMDRVNVEEFYEVYKGVVTEYHDMVTEMYSGPCVAMEIQQNNATKTFREFCGPADPEIARHLRPGTLRAIFGKTKIQNAVHCTDLPEDGLLEVQYFFKILDN
modifications: Human NME7-AB
notes: 'NME7' in the experiments means this protein
engraftment rate (T47D breast cancer cells; cancer cells mixed with NME7 prior to implantation alone): 33%
engraftment rate (T47D breast cancer cells; mixed with NME7 prior to implantation plus NME7 injections into the animal after cell implantation): 66%
implanted mice showing tumor growth characteristic of engraftment (T47D breast cancer cells; of six (6) implanted mice, T47D mixed with Matrigel and NME7 (two of six with standard Matrigel)): 4
average growth increase from Day 7 until day 21 (T47D breast cancer cells; tumors mixed with NME7 prior to implantation (57% without it)): 144%
expression of NANOG and OCT4 [1]: significant increases
increase in the expression of CDH1/E-cadherin [1]: 9 fold
mice that developed tumors (T47D cancer stem cells; all 24 mice implanted with 50, 100, 1,000 or 10,000 NME7-induced cancer stem cells): 67%
number of implanted cells that initiate tumors in mice (T47D cancer stem cells; cancer stem cells generated by culture in NME7-AB): ≤ 50 cells
time after which cancers metastasized (T47D cancer stem cells; group injected with NME7 daily): about 50 days
mice that formed tumors (T47D cancer stem cells; implanted with NME7-induced cancer stem cells and receiving daily injections of NME7): 83%
mice that formed tumors (T47D cancer stem cells; implanted with NME7-induced cancer stem cells, no circulating NME7 (no daily injections)): 50%
tumor-bearing mice that developed cancer metastasis (multiple tumors) (T47D cancer stem cells; of the daily NME7-injected mice that formed tumors, by approximately Day 50): 80%
support of human stem cell growth [2]: fully supported human stem cell growth

Reference: patent US20220193270A1, “METHOD FOR ENHANCING TUMOR GROWTH” (MINERVA BIOTECHNOLOGIES CORPORATION, priority 2013, published 2022)
